Laboratory results published in publication PMC3980048.

Biological target: HIV-1 clade C (CZA97.012) gp140 Env trimer (HIV-1 clade C, strain CZA97.012)
Test: SEC

“HIV-1 clade C (CZA97.012) gp140 Env trimer (natural protein)” gave a stoichiometry N of 3.
